This series concerns Proteinase-K. As to the kind of experiment: Proteinase-K protection test of Beta Lactamase (BLA) preparations, Nitrocefin Assay (FIGS. 3B, 3C). It is filed as biochemical. The following applies: PK overnight, 0.1 mg/ml in 1x PBS, 37° C.; 250 μg/ml nitrocefin, absorbance 486 nm.

Method: To verify enzyme encapsulation and activity, three separate preparations were incubated with and without Proteinase-K (PK). […] In this example, the three preparations were exposed to Proteinase-K (Thermo Scientific Pierce Proteinase K) enzyme overnight at a concentration of 0.1 mg/ml in 1× phosphate buffered saline (PBS) solution at 37° C. Enzyme activity assay was done on the samples post incubation with PK using a Nitrocefin Assay (BLA hydrolysis of nitrocefin produces a shift of UV absorption inside the visible light spectrum from intact nitrocefin (˜380 nm) to degraded nitrocefin (˜500 nm) allowing visual detection of BLA activity on a macroscopic level). Each reaction was 100 μl in total and contained 250 μg/ml nitrocefin as substrate. Absorbance was measured at 486 nm.

In the case of “Beta Lactamase (BLA) [bare unencapsulated enzyme]”, the “BLA enzyme activity when exposed to Proteinase-K (PK)” value was “loses all activity”.

Values taken from US11357830B2, “Nano-scale delivery device and uses thereof” (The Regents of the University of California, priority 2016, dated 2022).
